{
  "source": "the nanobody polyreactivity screen of Harvey et al. (2022)",
  "data": [
    {"assay": "yeast display, Sf9 membrane polyspecificity reagent, FACS + sequencing; frameworks hold sequencing errors", "method_in_brief": "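Galactose-induced (36–48 hours) yeast carrying a synthetic nanobody display library were exposed to 10% biotinylated, detergent-solubilized Sf9 membrane reagent at 4 °C for 1 hour. FACS followed streptavidin microbead enrichment, using low and high (top ~1%) gates for expression (anti-HA) and reagent binding (streptavidin). Colony PCR, MiSeq 2 × 250 sequencing and CDR-length filtering followed. Labels for polyreactivity reflect the gate of origin.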", "values": [
      {"sequence": "QVQLVESGGGLVQAGGSLRLSCAASGFIDAYTMGWYRQAPGKERELVAAITWSGGRTYYADSVKGRFTISRDNAKNTVYLQMNSLKPEDTAVYYCAATVSRGFYSWWYDYWGQGTQVTVSS", "polyreactivity (PSR sort gate)": "low polyreactivity"},
      {"sequence": "QVQLVESGGGLVQAGGSLRLSCAASGFIFADNAMGWYRQAPGKERELVAAINLGGGDTYYADSVKGRFTISRDNAKNTVYLQMNSLKPEDTAVYYCATVWFSEGYDYNHWGQGTQVTVSS", "polyreactivity (PSR sort gate)": "low polyreactivity"},
      {"sequence": "QVQLVESGGGLVQAGGSLRLSCAASGFIFADNTMGWYRQAPGKERELVGAISRRGGSTYYADSVKGRFTISRDNSKNTVYLQMNSLKPEDTAVYYCAARPFVKHDYWGQGTLVTVSS", "polyreactivity (PSR sort gate)": "high polyreactivity"},
      {"sequence": "QVQLVESGGGLVQAGGSLRLSCAASGFIFADYAMGWYRQAPGKERELVAAITRGGITYYADSVKGRFTISRDNAKNTVYLQMNSLKPEDTAVYYCAVDPSPRSYYNYYWGQGTQVTVSS", "polyreactivity (PSR sort gate)": "high polyreactivity"},
      {"sequence": "QVQLVESGGGLVQAGGSLRLSCAASGFIFADYAMGWYRQAPGKERELVAAITRSGGRTYYADSVKGRFTISRDNAKNTVYLQMNSLKPEDTAVYYCAAVGPGRRRDYWGQGTQVTVSS", "polyreactivity (PSR sort gate)": "high polyreactivity"},
      {"sequence": "QVQLVESGGGLVQAGGSLRLSCAASGFIFADYAMGWYRQAPGKERELVAAITSSGTRTYYADSVKGRFTISRDNAKNTVYLQMNSLKPEDTAVYYCAVRGVYYYHCAFDYWGQGTQVTVSS", "polyreactivity (PSR sort gate)": "high polyreactivity"},
      {"sequence": "QVQLVESGGGLVQAGGSLRLSCAASGFIFADYTMGWYRQAPGKERELVAAITWSGDSTYYADSVKGRFTISRDNAKNTVYLQMNSLKPEDTAVYYCNAVNDWYYAYYGVTSFRSYDYWGQGTQVTVSS", "polyreactivity (PSR sort gate)": "low polyreactivity"},
      {"sequence": "QVQLVESGGGLVQAGGSLRLSCAASGFIFAEYAMGWYRQAPGKERELVAAITSGGSTSYADSVKGRFTISRDNAKNTVYLQMNSLKPEDTAVYYCAATWYYHYNDWKHWYEYGYWGQGTQVTVSS", "polyreactivity (PSR sort gate)": "low polyreactivity"},
      {"sequence": "QVQLVESGGGLVQAGGSLRLSCAASGFIFAGYAMGWYRQAPGKERELVAAISSGGGSTYYADSVKGRFTISRDNAKNTVYLQMNSLKPEDTAVYYCAARRLYPPGYYYWGQGTQVTVSS", "polyreactivity (PSR sort gate)": "high polyreactivity"},
      {"sequence": "QVQLVESGGGLVQAGGSLRLSCAASGFIFAHNAMGWYRQAPGKARELVAAITSSGGSTYYADSVKGRFTISRDNAKNTVYLQKNSLKPEDTAVYYCNAYTYARRGYDYWGQGTQVTVSS", "polyreactivity (PSR sort gate)": "high polyreactivity"},
      {"sequence": "QVQLVESGGGLVQAGGSLRLSCAASGFIFAHNAMGWYRQAPGKERELVADITRDGNTYYADSVKGRFTISRDNAKNTVYLQMNSLKTEDTAVYYCAADVSTTWYWWGQFEFEYWGQGTQVTVSS", "polyreactivity (PSR sort gate)": "high polyreactivity"},
      {"sequence": "QVQLVESGGGLVQAGGSLRLSCAASGFIFAKYVMGWYRQAPGKERELVAAISRSGGSTYYADSVKGRFTISRDNAKNTVYLQLNSLKPEDTAVYYCAADQTTTGGMDYWGQGTQITVSS", "polyreactivity (PSR sort gate)": "high polyreactivity"},
      {"sequence": "QVQLVESGGGLVQAGGSLRLSCAASGFIFAKYVMGWYRQAPGKERELVAAISRSGGSTYYADSVKGRFTISRDNAKNTVYLQMNSLKPDDTAVYYFAADQTTTGGMDFWGQGTQVTVSS", "polyreactivity (PSR sort gate)": "high polyreactivity"},
      {"sequence": "QVQLVESGGGLVQAGGSLRLSCAASGFIFANYAMGWDRQAPGKERELVAAISTSGSSTYYADSVKGRFTISRDNAKNTVYLQMNSLKPKDTAVYYCRTSGKHRLYISSYRFEYWGQGTQVTVSS", "polyreactivity (PSR sort gate)": "high polyreactivity"},
      {"sequence": "QVQLVESGGGLVQAGGSLRLSCAASGFIFARYAMGWYRQAPGKERELVAAISVSGGSTYYADSVKGRFTISRDNAKNTVYLQMNSLKPEDTAVYYCAATRPFVSGWIMDYWGQGTQVTVSS", "polyreactivity (PSR sort gate)": "high polyreactivity"},
      {"sequence": "QVQLVESGGGLVQAGGSLRLSCAASGFIFARYGMGWYRQAPGKERELVAAIRTSGGTYYADSVKGRFTISRDNAKNTVYLQMNSLKPEDTAVYYCNVYRRVIWPKNYDYWGQGTQVTVSS", "polyreactivity (PSR sort gate)": "high polyreactivity"},
      {"sequence": "QVQLVESGGGLVQAGGSLRLSCAASGFIFASNAMGWYRQAPGKERELVAAITRSGGITYYADSVKGRFTISRDNAKNTVYLQMNSLKPEDTAVYYCNKGRRTKNSAYYDYWGQGTQVTVSS", "polyreactivity (PSR sort gate)": "high polyreactivity"},
      {"sequence": "QVQLVESGGGLVQAGGSLRLSCAASGFIFASYTMGWYRQAPGKERELVASISRDGGRTSYADSVKGRFTISRDNAKNTVYLQMNSLKPEDTAVYYCAARYWLRSEYWGQGTQVTVSS", "polyreactivity (PSR sort gate)": "high polyreactivity"},
      {"sequence": "QVQLVESGGGLVQAGGSLRLSCAASGFIFATYAMGWYRQAPGKERELVAAINRGGSTYYADSVKGRFTISRDNAKNTVYLQMNSLKPEDTAVYYCAAAKRYPTSTWYGYWGQGTQVTVSS", "polyreactivity (PSR sort gate)": "high polyreactivity"},
      {"sequence": "QVQLVESGGGLVQAGGSLRLSCAASGFIFATYGMGWYRQAPGKERELVATITSGGRTYYADSVKGRFTISRDNAKNTVYLQMNSLKPDDTAVYYCARASRRYWSMDYWGQGTQVSVSS", "polyreactivity (PSR sort gate)": "high polyreactivity"},
      {"sequence": "QVQLVESGGGLVQAGGSLRLSCAASGFIFAVNAMGWYRQAPGKERELVAAISGRGGRTYYADSVKGRFTISRDYAKNTVYLQMNSLKPEDTAVYYCAARSYQYSYSFYWGQGTQVTVSS", "polyreactivity (PSR sort gate)": "high polyreactivity"},
      {"sequence": "QVQLVESGGGLVQAGGSLRLSCAASGFIFAVNAMGWYRQAPGKERELVATIRATTTSTYADSVKGRFTISRDNAKNTVYLQMNSLKPEDTAVYYCATDVRTISFEYDYWGQGTQVTVSS", "polyreactivity (PSR sort gate)": "low polyreactivity"},
      {"sequence": "QVQLVESGGGLVQAGGSLRLSCAASGFIFAWYAMGWYRQAPGKERELVAAISYSGGSTYYADSVKGRFTISRDNAKNTVYLEMNSLKPEDTAVYYCNKVSRGGSYGHAFDYWGQGTQVTVSS", "polyreactivity (PSR sort gate)": "high polyreactivity"},
      {"sequence": "QVQLVESGGGLVQAGGSLRLSCAASGFIFAWYAMGWYRQAPGKERELVASISVSDGSTYYADSVKGRFTISRDNAKNTVYLQMNSLKPEDTAVYYCAAEVSSDYYNSDYYWGQGTQVTVSS", "polyreactivity (PSR sort gate)": "low polyreactivity"},
      {"sequence": "QVQLVESGGGLVQAGGSLRLSCAASGFIFAWYAMGWYRQAPGKEREMVAAITSGGRTYYADSVKGRFTISRDNAKNTVYLQMNSLKPEDTAVYYCATDAVASHRPYKYGPQSGSWGQGTQVTVSS", "polyreactivity (PSR sort gate)": "high polyreactivity"},
      {"sequence": "QVQLVESGGGLVQAGGSLRLSCAASGFIFAYNAMGWYRQAPGKERELVAAITGSGTRTYYADSVKGRFTISRDKAKNTVYLQMYSLKPEDTAVYYCAARFPRDTYYYWGQGTQVTVSS", "polyreactivity (PSR sort gate)": "high polyreactivity"},
      {"sequence": "QVQLVESGGGLVQAGGSLRLSCAASGFIFAYYALGWYRQAPGKERELVAAITWSGGRTYYADSVKGRFTISRDNAKNTVYLQMNSLKPEDTAVYYCNAVRPSVDYGYWGQGTQVTVSS", "polyreactivity (PSR sort gate)": "high polyreactivity"},
      {"sequence": "QVQLVESGGGLVQAGGSLRLSCAASGFIFAYYAMGWYRQAPGKERELVAAISSGGRTYYADSVKGRFTISRDNAKNTVYLQMNSLKPEDTAVYYCAAYYRLDYDYWGQGTQVTVSS", "polyreactivity (PSR sort gate)": "high polyreactivity"},
      {"sequence": "QVQLVESGGGLVQAGGSLRLSCAASGFIFCTNAMGWYRQAPGKERELVAGISRTGGRTYYADSVKGRFTISRDNAKNTVYLQMNSLKPEDTAVYYCAAVARRHKVYEYDYWGQGTQVTVSS", "polyreactivity (PSR sort gate)": "high polyreactivity"},
      {"sequence": "QVQLVESGGGLVQAGGSLRLSCAASGFIFDDNAMGWYRQAPGKERELVATITWSTGSTYYADSVKGRFTISRDNAKNTVYLQMNSLKPEDTAVYYCAKESYFYRYYLAYDYWGQGTQVTVSS", "polyreactivity (PSR sort gate)": "low polyreactivity"},
      {"sequence": "QVQLVESGGGLVQAGGSLRLSCAASGFIFDFYTMGWYRQAPGKERELVAAITNGGSTYYADSVKGRFTISRDNAKNTVYLQMNSLKPEDTAVYYCAAYYRSRHHGYDSWGQGTQVTVSS", "polyreactivity (PSR sort gate)": "low polyreactivity"},
      {"sequence": "QVQLVESGGGLVQAGGSLRLSCAASGFIFDFYTMGWYSQAPGKERELVAAITNGGSTYYADSVKGRFTISRDNAKNTVYLQMNSLKPEDTAVYYCAAYYRSRHHGYDSWGQGTQVTVSS", "polyreactivity (PSR sort gate)": "low polyreactivity"},
      {"sequence": "QVQLVESGGGLVQAGGSLRLSCAASGFIFDGNAMGWYRPAPGKERELVAAIRSGGRTNYADSVNGRFTISRDNAKNTVYLQMNSLKPEDTAVYYCAARSIYPYYYRRDNRYYYWGQGTQVTVSS", "polyreactivity (PSR sort gate)": "high polyreactivity"},
      {"sequence": "QVQLVESGGGLVQAGGSLRLSCAASGFIFDGYAMGWYRQAPGKERELVAAISSSGGRTHYADSVKGRFTISRDNAKNTVYLQMNSLKPEDTAVYYCAVRFKWQGYNYWGQGTQVTVSS", "polyreactivity (PSR sort gate)": "high polyreactivity"},
      {"sequence": "QVQLVESGGGLVQAGGSLRLSCAASGFIFDINAMGWYRQAPGKERELVAAISYSGGSTYYADSVKGRFTISRDNAKNNVYLQMNSLKPEDTAVYYCAADSGPDSDEGDYWGQGTQVTVSS", "polyreactivity (PSR sort gate)": "low polyreactivity"},
      {"sequence": "QVQLVESGGGLVQAGGSLRLSCAASGFIFDINAMGWYRQAPGTERELVADIRGGGSTYYADSVKGRFTISRDNAKNTVYVQMNSLKPEDTAVYYCNALDSYRHRPFDYWGQGTQVTVSS", "polyreactivity (PSR sort gate)": "low polyreactivity"},
      {"sequence": "QVQLVESGGGLVQAGGSLRLSCAASGFIFDKYAMGWYRQAPGKERELVAAINWSGDSTYYADSVKGRFTISRDNAKNTVYLQMNSLKPEDTAVYYCNARRPRFRYDYWGQGTQVTVSS", "polyreactivity (PSR sort gate)": "high polyreactivity"},
      {"sequence": "QVQLVESGGGLVQAGGSLRLSCAASGFIFDKYSMGWYRQAPGKERELVAAITDTGGNTYYADSVKGRFTISRDNAKNTVYLQMNILKPEDTAVYYSNADYTDYQTYSATTYEYWGQGTQVTVSS", "polyreactivity (PSR sort gate)": "low polyreactivity"},
      {"sequence": "QVQLVESGGGLVQAGGSLRLSCAASGFIFDPNAMGWYRLAPGKERELVAAISSSGGRTYYADSVKGRFTISRDNAKNTVYLQMNSLKPEDTAVYYCNARDYSGFQTGASAAFDYWGQGTQVTVSS", "polyreactivity (PSR sort gate)": "low polyreactivity"},
      {"sequence": "QVQLVESGGGLVQAGGSLRLSCAASGFIFDPYAMGWYRPAPGKERELVAVITYSAGSTYADSVNGRFTISRDNAKNTVYLQMNSLKPEDTAVYYCAKRWWYNVPLGVLYDYWGQGTQVTVSS", "polyreactivity (PSR sort gate)": "low polyreactivity"},
      {"sequence": "QVQLVESGGGLVQAGGSLRLSCAASGFIFDPYAMGWYRQAPGKERELVASINTRGDRTSYADSVKGRFTISRDNAKNTVYLQMNSLKPEDTAVYYCNADAVDQVGPDDDYWGQGTQVTVSS", "polyreactivity (PSR sort gate)": "low polyreactivity"},
      {"sequence": "QVQLVESGGGLVQAGGSLRLSCAASGFIFDRNTMGWYRQAPGKERELVATISSTGTTNYADSVKGRFTISRDNAKNTVYLQMNSLKPEDTAVYYCNAYPRWRYVSYYRSYRYDYWGQGTQVTVSS", "polyreactivity (PSR sort gate)": "high polyreactivity"},
      {"sequence": "QVQLVESGGGLVQAGGSLRLSCAASGFIFDTNAMGLYRQAPGKERELVATISTSGGSTSYADSVKGRFTISRDNAKNTVYLQMNSLTPEDTAVYYCAARWYFPDRVKYDYWGQGTQVTVSS", "polyreactivity (PSR sort gate)": "low polyreactivity"}
    ]}
  ]
}
